{
  "source": "paper PMC5341102",
  "proteins": {"B1": {"name": "SKN-1: S470A/T493A (protein)", "parent chain": "MGGSSRRQRSTSATRRDDKRRRRQCFSSVADDEEETTSIYGVSSIFIWILATSSLILVISSPSSNTSIQSSSYDRITTKHLLDNISPTFKMYTDSNNRNFDEVNHQHQQEQDFNGQSKYDYPQFNRPMGLRWRDDQRMMEYFMSNGPVETVPVMPILTEHPPASPFGRGPSTERPTTSSRYEYSSPSLEDIDLIDVLWRSDIAGEKGTRQVAPADQYECDLQTLTEKSTVAPLTAEENARYEDLSKGFYNGFFESFNNNQYQQKHQQQQREQIKTPTLEHPTQKAELEDDLFDEDLAQLFEDVSREEGQLNQLFDNKQQHPVINNVSLSEGIVYNQANLTEMQEMRDSCNQVSISTIPTTSTAQPETLFNVTDSQTVEQWLPTEVVPNDVFPTSNYAYIGMQNDSLQAVVSNGQIDYDHSYQSTGQTPLSPLIIGSSGRQQQTQTSPGSVTVTATATQSLFDPYHSQRHSFSDCTTDSSSTCSRLSSESPRYTSESSTGTHESRFYGKLAPSSGSRYQRSSSPRSSQSSIKIARVVPLASGQRKRGRQSKDEQLASDNELPVSAFQISEMSLSELQQVLKNESLSEYQRQLIRKIRRRGKNKVAARTCRQRRTDRHDKMSHYI"}, "B2": {"name": "SKN-1: ogt-1 loss (protein)", "parent chain": "B1 parent chain"}, "B3": {"name": "SKN-1: ogt-1(ok1474) (protein)", "parent chain": "B1 parent chain"}, "B4": {"name": "SKN-1: oga-1 loss (protein)", "parent chain": "B1 parent chain"}, "B5": {"name": "SKN-1: oga-1(ok1207) (protein)", "parent chain": "B1 parent chain"}, "B6": {"name": "SKN-1: without HIS-OGT-1 (protein)", "parent chain": "B1 parent chain"}, "B7": {"name": "SKN-1: T493A (protein)", "parent chain": "B1 parent chain"}},
  "key": {"[1]": {"experiment": "worm lifespan at 20 °C, N2 background", "conditions": "glycan lost; control: N2 expressing SKN-1B/C::GFP"}, "[2]": {"experiment": "GFP scoring of intestinal nuclei, tBHP"}, "[3]": {"experiment": "survival on 9.125 mM tBHP, N2 background", "conditions": "glycan lost; control: N2 expressing SKN-1B/C::GFP"}, "[4]": {"experiment": "GFP scoring of intestinal nuclei, gsk-3 RNAi", "conditions": "glycan lost, control: SKN-1B/C::GFP worms"}, "[5]": {"experiment": "in vitro kinase assay, anti-phosphoserine blot", "conditions": "glycan lost; control: wild type GST-SKN-1(321–623aa) co-expressed with HIS-OGT-1"}, "[6]": {"experiment": "worm lifespan at 20 °C, skn-1(zu67) background", "conditions": "glycan lost; control: skn-1(zu67) expressing SKN-1B/C::GFP"}, "[7]": {"experiment": "survival on 9.125 mM tBHP, skn-1(zu67) background", "conditions": "glycan lost; control: skn-1(zu67) expressing SKN-1B/C::GFP"}, "[8]": {"experiment": "GFP scoring of intestinal nuclei, oga-1 background", "conditions": "glycan lost; control: SKN-1B/C::GFP in oga-1(ok1207)"}, "[9]": {"experiment": "SKN-1 expression in ASI neurons", "conditions": "control: wild type worms"}, "[10]": {"experiment": "GFP scoring of intestinal nuclei, normal condition", "conditions": "control: N2 expressing SKN-1B/C::GFP, untreated"}, "[11]": {"experiment": "anti-phospho-SKN-1(Ser483) blot", "conditions": "glycan gained; control: wild type worms"}},
  "data": [
    {"protein": "B1", "values": [
      {"measurement": "other: lifespan extension by transgene", "setting": "[1]", "value": "abolishes"},
      {"measurement": "localisation_or_trafficking", "setting": "[2]; glycan lost, control: SKN-1B/C::GFP in N2, tBHP-treated", "value": "decreases"},
      {"measurement": "other: oxidative stress resistance conferred by transgene", "setting": "[3]", "value": "abolishes"},
      {"measurement": "localisation_or_trafficking", "setting": "[4]", "value": "decreases"},
      {"measurement": "other: phosphorylation by GSK-3", "setting": "[5]", "value": "increases"},
      {"measurement": "other: lifespan extension by transgene", "setting": "[6]", "value": "abolishes"},
      {"measurement": "other: oxidative stress resistance conferred by transgene", "setting": "[7]", "value": "abolishes"},
      {"measurement": "localisation_or_trafficking", "setting": "[8]", "value": "decreases"}
    ]},
    {"protein": "B2", "values": [
      {"measurement": "expression_or_secretion", "setting": "[9]; glycan lost", "value": "no change"}
    ]},
    {"protein": "B3", "values": [
      {"measurement": "localisation_or_trafficking", "setting": "[2]; glycan lost, control: N2 expressing SKN-1B/C::GFP, tBHP-treated", "value": "decreases"},
      {"measurement": "localisation_or_trafficking", "setting": "[10]; glycan lost", "value": "no change"}
    ]},
    {"protein": "B4", "values": [
      {"measurement": "expression_or_secretion", "setting": "[9]; glycan gained", "value": "no change"},
      {"measurement": "other: Ser483 phosphorylation", "setting": "[11]", "value": "decreases"}
    ]},
    {"protein": "B5", "values": [
      {"measurement": "localisation_or_trafficking", "setting": "[2]; glycan gained, control: N2 expressing SKN-1B/C::GFP, tBHP-treated", "value": "increases"},
      {"measurement": "localisation_or_trafficking", "setting": "[10]; glycan gained", "value": "increases"}
    ]},
    {"protein": "B6", "values": [
      {"measurement": "other: phosphorylation by GSK-3", "setting": "[5]", "value": "increases"}
    ]},
    {"protein": "B7", "values": [
      {"measurement": "other: phosphorylation by GSK-3", "setting": "[5]", "value": "increases"}
    ]}
  ]
}
